Results published in US7410949 (Hoffmann-La Roche, dated 2008).
*1 amine or outer side, *2 acyl side, *3 side chain or, on linkers, in order; H or OH if unused. [ ]: non-standard residue; d: D form. Pqa = N-piperazin-1-yl-4(3H)-quinazolinone-3-acetic acid, O=C(Cn1cnc2ccc(N3CCN([*:1])CC3)cc2c1=O)[*:2]; Phe(3,4,5-F3) = N[C@@H](Cc1cc(F)c(F)c(F)c1)C(=O)O; Phe(F5) = N[C@@H](Cc1c(F)c(F)c(F)c(F)c1F)C(=O)O; Bip = N[C@@H](Cc1ccc(-c2ccccc2)cc1)C(=O)O; Dip = N[C@H](C(=O)O)C(c1ccccc1)c1ccccc1; 1Nal = N[C@@H](Cc1cccc2ccccc12)C(=O)O; 2Nal = N[C@@H](Cc1ccc2ccccc2c1)C(=O)O; 3Pal = N[C@@H](Cc1cccnc1)C(=O)O; Nle = CCCC[C@H](N)C(=O)O

B1: H-Ile-NMeLys-Pqa-Arg-His-Tyr-Leu-Asn-Leu-Val-Thr-Arg-Gln-Arg-Tyr-NH2 (peptide)
peptide: IKRHYLNLVTRQRY
modifications: N-methyl Lys at PYY position 4 (residue 2 of the first part); Pqa moiety between the two parts; C-terminal amide
B2: Ac-Ile-Lys-Pqa-Arg-His-Tyr-Leu-Asn-Leu-Val-Thr-Arg-Gln-Arg-Tyr-NH2 (peptide)
peptide: IKRHYLNLVTRQRY
modifications: N-terminal acetyl; Pqa moiety between the two parts; C-terminal amide
B3: H-NMeIle-Lys-Pqa-Arg-His-Tyr-Leu-Asn-Leu-Val-Thr-Arg-Gln-Arg-Tyr-NH2 (peptide)
peptide: IKRHYLNLVTRQRY
modifications: N-methyl Ile at PYY position 3 (residue 1 of the first part); Pqa moiety between the two parts; C-terminal amide
B4: Ac-Ile-Nle-Pqa-Arg-His-Bip-Leu-Asn-Leu-Val-Thr-Arg-Gln-Arg-Tyr-NH2 (peptide)
peptide: Ac-I[Nle][Pqa]RH[Bip]LNLVTRQRY-NH2
SMILES: CCCC[C@H](NC(=O)[C@@H](NC(C)=O)[C@@H](C)CC)C(=O)N1CCN(c2ccc3ncn(CC(=O)N[C@@H](CCCNC(=N)N)C(=O)N[C@@H](Cc4c[nH]cn4)C(=O)N[C@@H](Cc4ccc(-c5ccccc5)cc4)C(=O)N[C@@H](CC(C)C)C(=O)N[C@@H](CC(N)=O)C(=O)N[C@@H](CC(C)C)C(=O)N[C@H](C(=O)N[C@H](C(=O)N[C@@H](CCCNC(=N)N)C(=O)N[C@@H](CCC(N)=O)C(=O)N[C@@H](CCCNC(=N)N)C(=O)N[C@@H](Cc4ccc(O)cc4)C(N)=O)[C@@H](C)O)C(C)C)c(=O)c3c2)CC1
B5: Ac-Ile-Nle-Pqa-Arg-His-Dip-Leu-Asn-Leu-Val-Thr-Arg-Gln-Arg-Tyr-NH2 (peptide)
peptide: Ac-I[Nle][Pqa]RH[Dip]LNLVTRQRY-NH2
SMILES: CCCC[C@H](NC(=O)[C@@H](NC(C)=O)[C@@H](C)CC)C(=O)N1CCN(c2ccc3ncn(CC(=O)N[C@@H](CCCNC(=N)N)C(=O)N[C@@H](Cc4c[nH]cn4)C(=O)N[C@H](C(=O)N[C@@H](CC(C)C)C(=O)N[C@@H](CC(N)=O)C(=O)N[C@@H](CC(C)C)C(=O)N[C@H](C(=O)N[C@H](C(=O)N[C@@H](CCCNC(=N)N)C(=O)N[C@@H](CCC(N)=O)C(=O)N[C@@H](CCCNC(=N)N)C(=O)N[C@@H](Cc4ccc(O)cc4)C(N)=O)[C@@H](C)O)C(C)C)C(c4ccccc4)c4ccccc4)c(=O)c3c2)CC1
B6: Ac-Ile-Nle-Pqa-Arg-His-(1)Nal-Leu-Asn-Leu-Val-Thr-Arg-Gln-Arg-Tyr-NH2 (peptide)
peptide: Ac-I[Nle][Pqa]RH[1Nal]LNLVTRQRY-NH2
SMILES: CCCC[C@H](NC(=O)[C@@H](NC(C)=O)[C@@H](C)CC)C(=O)N1CCN(c2ccc3ncn(CC(=O)N[C@@H](CCCNC(=N)N)C(=O)N[C@@H](Cc4c[nH]cn4)C(=O)N[C@@H](Cc4cccc5ccccc45)C(=O)N[C@@H](CC(C)C)C(=O)N[C@@H](CC(N)=O)C(=O)N[C@@H](CC(C)C)C(=O)N[C@H](C(=O)N[C@H](C(=O)N[C@@H](CCCNC(=N)N)C(=O)N[C@@H](CCC(N)=O)C(=O)N[C@@H](CCCNC(=N)N)C(=O)N[C@@H](Cc4ccc(O)cc4)C(N)=O)[C@@H](C)O)C(C)C)c(=O)c3c2)CC1
B7: Ac-Ile-Nle-Pqa-Arg-His-(2)Nal-Leu-Asn-Leu-Val-Thr-Arg-Gln-Arg-Tyr-NH2 (peptide)
peptide: Ac-I[Nle][Pqa]RH[2Nal]LNLVTRQRY-NH2
SMILES: CCCC[C@H](NC(=O)[C@@H](NC(C)=O)[C@@H](C)CC)C(=O)N1CCN(c2ccc3ncn(CC(=O)N[C@@H](CCCNC(=N)N)C(=O)N[C@@H](Cc4c[nH]cn4)C(=O)N[C@@H](Cc4ccc5ccccc5c4)C(=O)N[C@@H](CC(C)C)C(=O)N[C@@H](CC(N)=O)C(=O)N[C@@H](CC(C)C)C(=O)N[C@H](C(=O)N[C@H](C(=O)N[C@@H](CCCNC(=N)N)C(=O)N[C@@H](CCC(N)=O)C(=O)N[C@@H](CCCNC(=N)N)C(=O)N[C@@H](Cc4ccc(O)cc4)C(N)=O)[C@@H](C)O)C(C)C)c(=O)c3c2)CC1
B8: Ac-Ile-Nle-Pqa-Arg-His-(3,4,5trifluorPhe)-Leu-Asn-Leu-Val-Thr-Arg-Gln-Arg-Tyr-NH2 (peptide)
peptide: Ac-I[Nle][Pqa]RH[Phe(3,4,5-F3)]LNLVTRQRY-NH2
SMILES: CCCC[C@H](NC(=O)[C@@H](NC(C)=O)[C@@H](C)CC)C(=O)N1CCN(c2ccc3ncn(CC(=O)N[C@@H](CCCNC(=N)N)C(=O)N[C@@H](Cc4c[nH]cn4)C(=O)N[C@@H](Cc4cc(F)c(F)c(F)c4)C(=O)N[C@@H](CC(C)C)C(=O)N[C@@H](CC(N)=O)C(=O)N[C@@H](CC(C)C)C(=O)N[C@H](C(=O)N[C@H](C(=O)N[C@@H](CCCNC(=N)N)C(=O)N[C@@H](CCC(N)=O)C(=O)N[C@@H](CCCNC(=N)N)C(=O)N[C@@H](Cc4ccc(O)cc4)C(N)=O)[C@@H](C)O)C(C)C)c(=O)c3c2)CC1
B9: Ac-Ile-Nle-Pqa-Arg-His-(2,3,4,5,6 Penta fluoroPhe)-Leu-Asn-Leu-Val-Thr-Arg-Gln-Arg-Tyr-NH2 (peptide)
peptide: Ac-I[Nle][Pqa]RH[Phe(F5)]LNLVTRQRY-NH2
SMILES: CCCC[C@H](NC(=O)[C@@H](NC(C)=O)[C@@H](C)CC)C(=O)N1CCN(c2ccc3ncn(CC(=O)N[C@@H](CCCNC(=N)N)C(=O)N[C@@H](Cc4c[nH]cn4)C(=O)N[C@@H](Cc4c(F)c(F)c(F)c(F)c4F)C(=O)N[C@@H](CC(C)C)C(=O)N[C@@H](CC(N)=O)C(=O)N[C@@H](CC(C)C)C(=O)N[C@H](C(=O)N[C@H](C(=O)N[C@@H](CCCNC(=N)N)C(=O)N[C@@H](CCC(N)=O)C(=O)N[C@@H](CCCNC(=N)N)C(=O)N[C@@H](Cc4ccc(O)cc4)C(N)=O)[C@@H](C)O)C(C)C)c(=O)c3c2)CC1
B10: Ac-Ile-Nle-Pqa-Arg-(3-Pal)-Tyr-Leu-Asn-Leu-Val-Thr-Arg-Gln-Arg-Tyr-NH2 (peptide)
peptide: Ac-I[Nle][Pqa]R[3Pal]YLNLVTRQRY-NH2
SMILES: CCCC[C@H](NC(=O)[C@@H](NC(C)=O)[C@@H](C)CC)C(=O)N1CCN(c2ccc3ncn(CC(=O)N[C@@H](CCCNC(=N)N)C(=O)N[C@@H](Cc4cccnc4)C(=O)N[C@@H](Cc4ccc(O)cc4)C(=O)N[C@@H](CC(C)C)C(=O)N[C@@H](CC(N)=O)C(=O)N[C@@H](CC(C)C)C(=O)N[C@H](C(=O)N[C@H](C(=O)N[C@@H](CCCNC(=N)N)C(=O)N[C@@H](CCC(N)=O)C(=O)N[C@@H](CCCNC(=N)N)C(=O)N[C@@H](Cc4ccc(O)cc4)C(N)=O)[C@@H](C)O)C(C)C)c(=O)c3c2)CC1
B11: H-Ile-Lys-Pqa-Ala-His-Tyr-Leu-Asn-Leu-Val-Thr-Arg-Gln-Arg-Tyr-NH2 (peptide)
peptide: H-IK[Pqa]AHYLNLVTRQRY-NH2
SMILES: CC[C@H](C)[C@H](N)C(=O)N[C@@H](CCCCN)C(=O)N1CCN(c2ccc3ncn(CC(=O)N[C@@H](C)C(=O)N[C@@H](Cc4c[nH]cn4)C(=O)N[C@@H](Cc4ccc(O)cc4)C(=O)N[C@@H](CC(C)C)C(=O)N[C@@H](CC(N)=O)C(=O)N[C@@H](CC(C)C)C(=O)N[C@H](C(=O)N[C@H](C(=O)N[C@@H](CCCNC(=N)N)C(=O)N[C@@H](CCC(N)=O)C(=O)N[C@@H](CCCNC(=N)N)C(=O)N[C@@H](Cc4ccc(O)cc4)C(N)=O)[C@@H](C)O)C(C)C)c(=O)c3c2)CC1
B12: H-Ile-Lys-Pqa-Arg-His-Tyr-Leu-Asn-Leu-Val-Thr-Arg-Gln-Arg-(D)Tyr-NH2 (peptide)
peptide: IKRHYLNLVTRQRY
modifications: (D)Tyr at PYY position 36 (residue 12 of the second part); Pqa moiety between the two parts; C-terminal amide
B13: H-Ile-Lys-Pqa-Arg-His-Tyr-Leu-(D))Asn-Leu-Val-Thr-Arg-Gln-Arg-Tyr-NH2 (peptide)
peptide: IKRHYLNLVTRQRY
modifications: (D)Asn at PYY position 29 (residue 5 of the second part); Pqa moiety between the two parts; C-terminal amide
B14: H-Ile-Lys-Pqa-Arg-His-Tyr-(D)Leu-Asn-Leu-Val-Thr-Arg-Gln-Arg-Tyr-NH2 (peptide)
peptide: IKRHYLNLVTRQRY
modifications: (D)Leu at PYY position 28 (residue 4 of the second part); Pqa moiety between the two parts; C-terminal amide
B15: H-Ile-Lys-Pqa-Arg-His-(D)Tyr-Leu-Asn-Leu-Val-Thr-Arg-Gln-Arg-Tyr-NH2 (peptide)
peptide: IKRHYLNLVTRQRY
modifications: (D)Tyr at PYY position 27 (residue 3 of the second part); Pqa moiety between the two parts; C-terminal amide

The binders below were run against Y4R (assay: cell-based or functional assay).
With B1 the “Y4R EC50(nM) FLIPR” value was greater than 5000 nM.
With B2 the “Y4R EC50(nM) FLIPR” value was greater than 5000 nM.
With B3 the “Y4R EC50(nM) FLIPR” value was greater than 5000 nM.
With B4 the “Y4R EC50(nM) FLIPR” value was greater than 5000 nM.
B5 was tested, and the “Y4R EC50(nM) FLIPR” value was greater than 5000 nM.
In the case of B6, the “Y4R EC50(nM) FLIPR” value is reported as greater than 5000 nM.
With B7 the “Y4R EC50(nM) FLIPR” value was greater than 5000 nM.
For B8, the “Y4R EC50(nM) FLIPR” value was greater than 5000 nM.
B9 was tested, and the “Y4R EC50(nM) FLIPR” value was greater than 5000 nM.
In the case of B10, the “Y4R EC50(nM) FLIPR” value is reported as greater than 5000 nM.
With B11 the “Y4R EC50(nM) FLIPR” value was greater than 5000 nM.
In the case of B12, the “Y4R EC50(nM) FLIPR” value is reported as greater than 5000 nM.
For B13, the “Y4R EC50(nM) FLIPR” value was greater than 5000 nM.
In the case of B14, the “Y4R EC50(nM) FLIPR” value is reported as greater than 5000 nM.
In the case of B15, the “Y4R EC50(nM) FLIPR” value is reported as greater than 5000 nM.
